The data set has as its target TF-TDP-43-FL (UniProt Q13148). As to the kind of experiment: EMSA. Particulars: biotin-UTP incorporated in transcription; EMSA: 40 mM Tris-HCl pH 7.4, 30 mM KCl, 1 mM MgCl2, 0.01% IGEPAL CA-630, 1 mM DTT, 10 ug yeast tRNA, 10 ug BSA, 10 ng RNA, 200 ng protein in 10 ul, 25 C, 20 min. A general note: Mobility shift assays separate free from complexed probe on a gel.

Chain of TF-TDP-43-FL (Q13148 whole entry): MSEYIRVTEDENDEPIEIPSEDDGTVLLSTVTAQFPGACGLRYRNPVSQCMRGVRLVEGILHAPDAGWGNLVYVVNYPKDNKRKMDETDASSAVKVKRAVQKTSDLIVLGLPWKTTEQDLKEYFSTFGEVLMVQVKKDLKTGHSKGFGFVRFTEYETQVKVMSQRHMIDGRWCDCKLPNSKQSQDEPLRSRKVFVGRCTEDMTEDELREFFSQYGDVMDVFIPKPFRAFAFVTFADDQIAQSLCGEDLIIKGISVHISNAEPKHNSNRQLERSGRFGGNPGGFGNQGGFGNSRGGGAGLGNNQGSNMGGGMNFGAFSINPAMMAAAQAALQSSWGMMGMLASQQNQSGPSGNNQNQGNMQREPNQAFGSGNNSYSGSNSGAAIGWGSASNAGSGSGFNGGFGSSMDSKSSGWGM

“GGGAGAGCAAAGUGAUGAGUAAUACUGGCUGGAGCCCCAAAGAGGCACGUGUGUGUGUUUGUGUGUGUGUGUAUAUGCUUGUCAGUGCAUGCACGUGUAUGUCUGGGAGUACAAAUGGGUGCGACUGGUUGUAGGGAACUAGCUAUGUGCCUUCUAUUAGGCCAUGACAGUCAAACUGAUAAGAUCUGAUUGC [scaRNA28]”: the binding result was “binds”.

The values above are taken from article PMC6412121.
